Data from patent publication US20220372155A1 (LYVGEN BIOPHARMA, published 2022).

B1: Ly469 (bispecific antibody, human IgG1, kappa)
heavy: QVQLKESGPGLVAPSQSLSITCTVSGFSLTDYGVRWIRQPPGKGLEWLGVIWGGGSTYYNSALKSRLSISKDNSKSQVFLKMNSLQTDDTAMYYCAKEKRRGYYYAMDYWGQGTSVTVSSASTKGPSVFPLAPSSKSTSGGTAALGCLVKDYFPEPVTVSWNSGALTSGVHTFPAVLQSSGLYSLSSVVTVPSSSLGTQTYICNVNHKPSNTKVDKKVEPKSCDKTHTCPPCPAPELLGPSVFLFPPKPKDTLMISRTPEVTCVVVDVSHEDPEVKFNWYVDGVEVHNAKTKPREEQYNSTYRVVSVLTVLHQDWLNGKEYKCKVSNKALPAPIEKTISKAKGQPREPQVYTLPPSREEMTKNQVSLTCLVKGFYPSDIAVEWESNGQPENNYKTTPPVLDSDGSFFLYSKLTVDKSRWQQGNVFSCSVMHEALHNHYTQKSLSLSPG
light: ENVLTQSPAIMSASPGEKVTMTCRASSSVSSSYLHWYQQKSGASPKLWIYSTSNLASGVPARFSGSGSGTSYSLTISSVEAEDAATYYCQQYSGYPLTFGGGTKLEIKRTVAAPSVFIFPPSDEQLKSGTASVVCLLNNFYPREAKVQWKVDNALQSGNSQESVTEQDSKDSTYSLSSTLTLSKADYEKHKVYACEVTHQGLSSPVTKSFNRGECGGGGSGGGGSGGGGSGGGGSEVQLVESGGGLVQPGGSLRLSCAASGFTFTNYGLHWVRQAPGKGLEWVSSISPSGGVTYYRDSVKGRFTISRDNSKNTLYLQMNSLRAEDTAVYYCAKPFLGWGGANWIAHWGQGTLVTVSSGGGGSGGGGSGGGGSGGGGSDIQMTQSPSSLSASVGDRVTITCLASEDISNDLAWYQQKPGKAPKLLIYFVDRLLDGVPSRFSGSGSGTDFTLTISSLQPEDFATYYCQQSYKYPPTFGQGTKLEIK
notes: Ly368 HC + Ly368 LC-TM559 scFv VH-VL
B2: Ly473 (bispecific antibody, human IgG1, kappa)
heavy: B1 heavy
light: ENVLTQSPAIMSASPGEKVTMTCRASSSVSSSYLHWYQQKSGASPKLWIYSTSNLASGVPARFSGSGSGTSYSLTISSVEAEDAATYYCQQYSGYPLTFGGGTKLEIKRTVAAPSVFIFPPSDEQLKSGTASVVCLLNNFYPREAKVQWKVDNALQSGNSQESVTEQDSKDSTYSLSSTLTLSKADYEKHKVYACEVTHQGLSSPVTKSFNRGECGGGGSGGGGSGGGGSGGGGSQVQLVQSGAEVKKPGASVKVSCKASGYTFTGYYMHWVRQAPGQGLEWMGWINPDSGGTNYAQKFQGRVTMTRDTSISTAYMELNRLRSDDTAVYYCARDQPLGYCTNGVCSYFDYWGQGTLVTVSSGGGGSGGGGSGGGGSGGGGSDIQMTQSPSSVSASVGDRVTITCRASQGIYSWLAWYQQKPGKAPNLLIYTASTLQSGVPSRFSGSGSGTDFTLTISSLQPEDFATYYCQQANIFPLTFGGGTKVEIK
notes: Ly368 HC + Ly368 LC-Ly253 scFv VH-VL
B3: Ly472 (bispecific antibody, human IgG1, kappa)
heavy: B1 heavy
light: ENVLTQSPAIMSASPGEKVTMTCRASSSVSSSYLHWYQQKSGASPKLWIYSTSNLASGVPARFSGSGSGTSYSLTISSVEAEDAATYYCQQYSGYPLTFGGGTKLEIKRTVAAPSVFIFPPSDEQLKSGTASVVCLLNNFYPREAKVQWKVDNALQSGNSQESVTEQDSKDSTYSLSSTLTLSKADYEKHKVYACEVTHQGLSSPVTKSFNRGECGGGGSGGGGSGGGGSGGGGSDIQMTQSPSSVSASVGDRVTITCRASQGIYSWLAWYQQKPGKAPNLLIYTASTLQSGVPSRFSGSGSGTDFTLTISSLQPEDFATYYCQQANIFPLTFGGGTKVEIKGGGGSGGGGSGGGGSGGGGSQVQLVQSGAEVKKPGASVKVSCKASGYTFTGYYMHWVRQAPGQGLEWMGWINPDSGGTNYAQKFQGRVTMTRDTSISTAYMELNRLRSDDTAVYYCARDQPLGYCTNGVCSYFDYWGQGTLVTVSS
notes: Ly368 HC + Ly368 LC-Ly253 scFv VL-VH
B4: Ly801 (bispecific antibody, human IgG1, kappa)
heavy: EVQLQQSGPELVKPGASVKMSCKASGYTFTSYVMHWVKQKPGQGLEWIGYINPYNDGTECTDKFKGKATLTSDKSSSTAYMELSSLTSEDSAVYYCASIYYGYDGTYFGVWGAGTSVTVSSASTKGPSVFPLAPSSKSTSGGTAALGCLVKDYFPEPVTVSWNSGALTSGVHTFPAVLQSSGLYSLSSVVTVPSSSLGTQTYICNVNHKPSNTKVDKKVEPKSCDKTHTCPPCPAPELLGPSVFLFPPKPKDTLMISRTPEVTCVVVDVSHEDPEVKFNWYVDGVEVHNAKTKPREEQYNSTYRVVSVLTVLHQDWLNGKEYKCKVSNKALPAPIEKTISKAKGQPREPQVYTLPPSREEMTKNQVSLTCLVKGFYPSDIAVEWESNGQPENNYKTTPPVLDSDGSFFLYSKLTVDKSRWQQGNVFSCSVMHEALHNHYTQKSLSLSPG
light: QIVLSQSPAILSTSPGEKVTMTCRASSSVSYMHWYQQKPGSSPKPWIYATSNLASGVPARFSGSRSGTSYSLTISRVEAEDAATYYCQQWSSNTLTFGGGTKLELKRTVAAPSVFIFPPSDEQLKSGTASVVCLLNNFYPREAKVQWKVDNALQSGNSQESVTEQDSKDSTYSLSSTLTLSKADYEKHKVYACEVTHQGLSSPVTKSFNRGECGGGGSGGGGSGGGGSGGGGSDIQMTQSPSSLSASVGDRVTITCKASQNIYIYLNWYQQKPGKAPKLLIYNTNNLQTGVPSRFSGSGSGTDFTLTISSLQPEDFATYYCLQHSSRRTFGGGTKVEIKGGGGSGGGGSGGGGSGGGGSQVQLVESGGGLVQPGGSLKLSCATSGFNFNDYFMNWVRQASGKGLEWVGQIRNKNYNYATYYTESLEGRVTISRDDSKNTAYLQMNSLKTEDTAVYYCTSYYYDGFADYFDYWGQGTTVTVSS
notes: Ly383 HC (IgG1 mutated Fc) + Ly383 LC-TM740 scFv VL-VH
B5: Ly802 (bispecific antibody, human IgG1, kappa)
heavy: B4 heavy
light: QIVLSQSPAILSTSPGEKVTMTCRASSSVSYMHWYQQKPGSSPKPWIYATSNLASGVPARFSGSRSGTSYSLTISRVEAEDAATYYCQQWSSNTLTFGGGTKLELKRTVAAPSVFIFPPSDEQLKSGTASVVCLLNNFYPREAKVQWKVDNALQSGNSQESVTEQDSKDSTYSLSSTLTLSKADYEKHKVYACEVTHQGLSSPVTKSFNRGECGGGGSGGGGSGGGGSGGGGSQVQLVESGGGLVQPGGSLKLSCATSGFNFNDYFMNWVRQASGKGLEWVGQIRNKNYNYATYYTESLEGRVTISRDDSKNTAYLQMNSLKTEDTAVYYCTSYYYDGFADYFDYWGQGTTVTVSSGGGGSGGGGSGGGGSGGGGSDIQMTQSPSSLSASVGDRVTITCKASQNIYIYLNWYQQKPGKAPKLLIYNTNNLQTGVPSRFSGSGSGTDFTLTISSLQPEDFATYYCLQHSSRRTFGGGTKVEIK
notes: Ly383 HC (IgG1 mutated Fc) + Ly383 LC-TM740 scFv VH-VL
B6: Ly804 (bispecific antibody, human IgG1, kappa)
heavy: B4 heavy
light: QIVLSQSPAILSTSPGEKVTMTCRASSSVSYMHWYQQKPGSSPKPWIYATSNLASGVPARFSGSRSGTSYSLTISRVEAEDAATYYCQQWSSNTLTFGGGTKLELKRTVAAPSVFIFPPSDEQLKSGTASVVCLLNNFYPREAKVQWKVDNALQSGNSQESVTEQDSKDSTYSLSSTLTLSKADYEKHKVYACEVTHQGLSSPVTKSFNRGECGGGGSGGGGSGGGGSGGGGSEVQLVESGGGLVQPGGSLRLSCAASGFTFTNYGLHWVRQAPGKGLEWVSSISPSGGVTYYRDSVKGRFTISRDNSKNTLYLQMNSLRAEDTAVYYCAKPFLGWGGANWIAHWGQGTLVTVSSGGGGSGGGGSGGGGSGGGGSDIQMTQSPSSLSASVGDRVTITCLASEDISNDLAWYQQKPGKAPKLLIYFVDRLLDGVPSRFSGSGSGTDFTLTISSLQPEDFATYYCQQSYKYPPTFGQGTKLEIK
notes: Ly383 HC (IgG1 mutated Fc) + Ly383 LC-TM559 scFv VH-VL
B7: Ly803 (bispecific antibody, human IgG1, kappa)
heavy: B4 heavy
light: QIVLSQSPAILSTSPGEKVTMTCRASSSVSYMHWYQQKPGSSPKPWIYATSNLASGVPARFSGSRSGTSYSLTISRVEAEDAATYYCQQWSSNTLTFGGGTKLELKRTVAAPSVFIFPPSDEQLKSGTASVVCLLNNFYPREAKVQWKVDNALQSGNSQESVTEQDSKDSTYSLSSTLTLSKADYEKHKVYACEVTHQGLSSPVTKSFNRGECGGGGSGGGGSGGGGSGGGGSDIQMTQSPSSLSASVGDRVTITCLASEDISNDLAWYQQKPGKAPKLLIYFVDRLLDGVPSRFSGSGSGTDFTLTISSLQPEDFATYYCQQSYKYPPTFGQGTKLEIKGGGGSGGGGSGGGGSGGGGSEVQLVESGGGLVQPGGSLRLSCAASGFTFTNYGLHWVRQAPGKGLEWVSSISPSGGVTYYRDSVKGRFTISRDNSKNTLYLQMNSLRAEDTAVYYCAKPFLGWGGANWIAHWGQGTLVTVSS
notes: Ly383 HC (IgG1 mutated Fc) + Ly383 LC-TM559 scFv VL-VH
B8: Ly805 (bispecific antibody, human IgG1, kappa)
heavy: QVQLQQPGAELVKPGASVKLSCKASGYTFTSYWMHWVKQRPGQGLEWIGMIHPNSGGTNYNEKFKGKGTLTVDKSSSTAYMQLSSLTSDDSAVYYCVTSQATWFAYWGQGTLVTVSAASTKGPSVFPLAPSSKSTSGGTAALGCLVKDYFPEPVTVSWNSGALTSGVHTFPAVLQSSGLYSLSSVVTVPSSSLGTQTYICNVNHKPSNTKVDKKVEPKSCDKTHTCPPCPAPELLGPSVFLFPPKPKDTLMISRTPEVTCVVVDVSHEDPEVKFNWYVDGVEVHNAKTKPREEQYNSTYRVVSVLTVLHQDWLNGKEYKCKVSNKALPAPIEKTISKAKGQPREPQVYTLPPSREEMTKNQVSLTCLVKGFYPSDIAVEWESNGQPENNYKTTPPVLDSDGSFFLYSKLTVDKSRWQQGNVFSCSVMHEALHNHYTQKSLSLSPG
light: ENVLTQSPAIMSVSPGEKVTMTCRASSSVSSSYLHWYQQKSGASPKFWIYSTSNLASGVPARFSGSGSGTSYSLTISSVEAEDAATYYCQHYSGYPLTFGAGTKLELRRTVAAPSVFIFPPSDEQLKSGTASVVCLLNNFYPREAKVQWKVDNALQSGNSQESVTEQDSKDSTYSLSSTLTLSKADYEKHKVYACEVTHQGLSSPVTKSFNRGECGGGGSGGGGSGGGGSGGGGSDIQMTQSPSSLSASVGDRVTITCKASQNIYIYLNWYQQKPGKAPKLLIYNTNNLQTGVPSRFSGSGSGTDFTLTISSLQPEDFATYYCLQHSSRRTFGGGTKVEIKGGGGSGGGGSGGGGSGGGGSQVQLVESGGGLVQPGGSLKLSCATSGFNFNDYFMNWVRQASGKGLEWVGQIRNKNYNYATYYTESLEGRVTISRDDSKNTAYLQMNSLKTEDTAVYYCTSYYYDGFADYFDYWGQGTTVTVSS
notes: Ly387 HC (IgG1 mutated Fc) + Ly387 LC-TM740 scFv VL-VH
B9: Ly806 (bispecific antibody, human IgG1, kappa)
heavy: B8 heavy
light: ENVLTQSPAIMSVSPGEKVTMTCRASSSVSSSYLHWYQQKSGASPKFWIYSTSNLASGVPARFSGSGSGTSYSLTISSVEAEDAATYYCQHYSGYPLTFGAGTKLELRRTVAAPSVFIFPPSDEQLKSGTASVVCLLNNFYPREAKVQWKVDNALQSGNSQESVTEQDSKDSTYSLSSTLTLSKADYEKHKVYACEVTHQGLSSPVTKSFNRGECGGGGSGGGGSGGGGSGGGGSQVQLVESGGGLVQPGGSLKLSCATSGFNFNDYFMNWVRQASGKGLEWVGQIRNKNYNYATYYTESLEGRVTISRDDSKNTAYLQMNSLKTEDTAVYYCTSYYYDGFADYFDYWGQGTTVTVSSGGGGSGGGGSGGGGSGGGGSDIQMTQSPSSLSASVGDRVTITCKASQNIYIYLNWYQQKPGKAPKLLIYNTNNLQTGVPSRFSGSGSGTDFTLTISSLQPEDFATYYCLQHSSRRTFGGGTKVEIK
notes: Ly387 HC (IgG1 mutated Fc) + Ly387 LC-TM740 scFv VH-VL
B10: Ly470 (bispecific antibody, human IgG1, kappa)
heavy: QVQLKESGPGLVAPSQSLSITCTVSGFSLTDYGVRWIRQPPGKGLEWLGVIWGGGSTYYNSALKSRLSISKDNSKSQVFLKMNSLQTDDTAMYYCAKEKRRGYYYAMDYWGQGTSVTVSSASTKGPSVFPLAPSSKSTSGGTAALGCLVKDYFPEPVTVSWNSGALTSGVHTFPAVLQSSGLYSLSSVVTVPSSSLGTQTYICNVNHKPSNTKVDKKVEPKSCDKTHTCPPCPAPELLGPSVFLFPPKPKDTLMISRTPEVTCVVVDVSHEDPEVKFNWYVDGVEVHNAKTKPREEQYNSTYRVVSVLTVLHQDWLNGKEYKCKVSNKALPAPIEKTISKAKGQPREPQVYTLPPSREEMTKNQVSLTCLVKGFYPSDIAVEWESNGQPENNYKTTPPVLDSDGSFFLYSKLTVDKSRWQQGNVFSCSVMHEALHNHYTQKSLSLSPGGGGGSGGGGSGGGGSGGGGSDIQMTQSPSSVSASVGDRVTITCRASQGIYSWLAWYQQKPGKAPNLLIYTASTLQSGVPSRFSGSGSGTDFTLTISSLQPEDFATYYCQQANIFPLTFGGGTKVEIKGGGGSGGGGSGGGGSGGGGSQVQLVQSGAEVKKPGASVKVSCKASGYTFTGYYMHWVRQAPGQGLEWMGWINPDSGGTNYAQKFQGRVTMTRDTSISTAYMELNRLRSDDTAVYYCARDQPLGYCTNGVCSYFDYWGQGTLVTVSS
light: ENVLTQSPAIMSASPGEKVTMTCRASSSVSSSYLHWYQQKSGASPKLWIYSTSNLASGVPARFSGSGSGTSYSLTISSVEAEDAATYYCQQYSGYPLTFGGGTKLEIKRTVAAPSVFIFPPSDEQLKSGTASVVCLLNNFYPREAKVQWKVDNALQSGNSQESVTEQDSKDSTYSLSSTLTLSKADYEKHKVYACEVTHQGLSSPVTKSFNRGEC
notes: Ly368 HC-Ly253 scFv VL-VH + Ly368 LC
B11: Ly471 (bispecific antibody, human IgG1, kappa)
heavy: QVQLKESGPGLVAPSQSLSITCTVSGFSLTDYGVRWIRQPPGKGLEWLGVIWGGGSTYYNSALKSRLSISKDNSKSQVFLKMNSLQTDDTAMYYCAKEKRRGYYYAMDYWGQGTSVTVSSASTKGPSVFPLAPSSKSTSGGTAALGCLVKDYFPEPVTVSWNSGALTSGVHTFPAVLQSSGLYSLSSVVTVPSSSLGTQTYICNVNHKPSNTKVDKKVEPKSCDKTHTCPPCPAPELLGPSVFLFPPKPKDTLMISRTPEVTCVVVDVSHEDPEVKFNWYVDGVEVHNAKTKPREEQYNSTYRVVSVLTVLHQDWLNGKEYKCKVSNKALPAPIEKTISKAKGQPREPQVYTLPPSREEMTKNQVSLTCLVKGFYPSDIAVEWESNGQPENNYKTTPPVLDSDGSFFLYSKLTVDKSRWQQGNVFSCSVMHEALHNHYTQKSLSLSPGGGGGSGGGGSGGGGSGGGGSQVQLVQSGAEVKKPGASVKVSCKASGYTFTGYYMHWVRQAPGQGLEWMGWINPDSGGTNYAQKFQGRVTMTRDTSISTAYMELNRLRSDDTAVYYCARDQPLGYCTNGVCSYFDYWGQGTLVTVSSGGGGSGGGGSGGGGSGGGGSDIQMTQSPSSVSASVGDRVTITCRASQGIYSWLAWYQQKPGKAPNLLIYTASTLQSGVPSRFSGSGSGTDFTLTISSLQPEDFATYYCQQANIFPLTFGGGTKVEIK
light: B10 light
notes: Ly368 HC-Ly253 scFv VH-VL + Ly368 LC

molecular target: T1, human CD40 expressed on CHO cells (human, UniProt P25942 21-277); experiment: FACS, CHO cells
T1 construct: whole, on cells; also used for the reporter cells over-expressing human CD40; also called cellular CD40; CHO-CD40 cells
T1 sequence (P25942 21-277): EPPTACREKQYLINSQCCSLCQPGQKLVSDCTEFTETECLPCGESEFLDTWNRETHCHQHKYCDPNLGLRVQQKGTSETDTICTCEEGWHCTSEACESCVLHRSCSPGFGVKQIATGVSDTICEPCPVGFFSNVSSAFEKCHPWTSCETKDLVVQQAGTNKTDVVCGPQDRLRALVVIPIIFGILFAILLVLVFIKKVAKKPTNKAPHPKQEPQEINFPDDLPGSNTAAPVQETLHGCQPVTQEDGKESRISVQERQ

binding result | Binder
binds | B1
binds | B2
binds | B3
binds | B4
binds | B5
binds | B6
binds | B7
binds | B8
binds | B9
binds | B10
binds | B11
